These results are taken from PMC6005420, “A low-complexity region in the YTH domain protein Mmi1 enhances RNA binding”.

As usually defined, the Kd is a measure of binding affinity in units of concentration.

Series [1] addresses T1, Mmi1 USR-YTH (Schizosaccharomyces pombe, UniProt O74958 282-488).
T1 sequence: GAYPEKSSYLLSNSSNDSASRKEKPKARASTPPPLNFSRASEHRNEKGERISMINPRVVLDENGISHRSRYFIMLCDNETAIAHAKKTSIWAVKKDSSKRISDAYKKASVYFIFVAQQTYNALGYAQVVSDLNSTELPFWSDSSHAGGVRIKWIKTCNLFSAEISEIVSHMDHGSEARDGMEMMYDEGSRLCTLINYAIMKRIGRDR
Kind of series: SwitchSENSE. Conditions: 40 mM NaCl; RNA-DNA chimera: 15-mer DSRshort followed by 42 deoxyribonucleotides; FP: 10 mM TAPS pH 8.2, 2 mM PIPES, 50 or 150 mM NaCl, 0.5 mM MgAc, 0.1 mM TCEP, 0.01% Brij-35, room temperature, 0.1 nM RNA; EMSA: 20 mM HEPES pH 7.5, 100 mM …. On the technique in general: In EMSA bound probe runs differently from free probe, usually more slowly.

Series [2] relates to Mmi1 YTH-ΔN (Schizosaccharomyces pombe). Kind of series: SwitchSENSE. The following applies: 40 mM NaCl; RNA-DNA chimera: 15-mer DSRshort followed by 42 deoxyribonucleotides; FP: 10 mM TAPS pH 8.2, 2 mM PIPES, 50 or 150 mM NaCl, 0.5 mM MgAc, 0.1 mM TCEP, 0.01% Brij-35, room temperature, 0.1 nM RNA; EMSA: 20 mM HEPES pH 7.5, 100 mM ….
Series [3] concerns Mmi1 YTH-ΔC (Schizosaccharomyces pombe). Kind of series: SwitchSENSE. Conditions: 40 mM NaCl; RNA-DNA chimera: 15-mer DSRshort followed by 42 deoxyribonucleotides; FP: 10 mM TAPS pH 8.2, 2 mM PIPES, 50 or 150 mM NaCl, 0.5 mM MgAc, 0.1 mM TCEP, 0.01% Brij-35, room temperature, 0.1 nM RNA; EMSA: 20 mM HEPES pH 7.5, 100 mM ….
The test system of series [4] is Mmi1 YTH-ΔNΔC (Schizosaccharomyces pombe). Kind of series: SwitchSENSE. Conditions: 40 mM NaCl; RNA-DNA chimera: 15-mer DSRshort followed by 42 deoxyribonucleotides; FP: 10 mM TAPS pH 8.2, 2 mM PIPES, 50 or 150 mM NaCl, 0.5 mM MgAc, 0.1 mM TCEP, 0.01% Brij-35, room temperature, 0.1 nM RNA; EMSA: 20 mM HEPES pH 7.5, 100 mM ….
In series [5] the target is T2, Mmi1 YTH (Schizosaccharomyces pombe, UniProt O74958 327-488).
T2 sequence: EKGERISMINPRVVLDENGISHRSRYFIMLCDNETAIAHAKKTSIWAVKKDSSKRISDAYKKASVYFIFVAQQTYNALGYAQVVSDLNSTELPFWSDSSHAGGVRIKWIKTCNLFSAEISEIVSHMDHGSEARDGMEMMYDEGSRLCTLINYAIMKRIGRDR
Kind of series: SwitchSENSE. Conditions: 40 mM NaCl; RNA-DNA chimera: 15-mer DSRshort followed by 42 deoxyribonucleotides; FP: 10 mM TAPS pH 8.2, 2 mM PIPES, 50 or 150 mM NaCl, 0.5 mM MgAc, 0.1 mM TCEP, 0.01% Brij-35, room temperature, 0.1 nM RNA; EMSA: 20 mM HEPES pH 7.5, 100 mM ….

The target in another series is T3, Mmi1(301-488) (Schizosaccharomyces pombe, UniProt O74958 301-488).
T3 sequence: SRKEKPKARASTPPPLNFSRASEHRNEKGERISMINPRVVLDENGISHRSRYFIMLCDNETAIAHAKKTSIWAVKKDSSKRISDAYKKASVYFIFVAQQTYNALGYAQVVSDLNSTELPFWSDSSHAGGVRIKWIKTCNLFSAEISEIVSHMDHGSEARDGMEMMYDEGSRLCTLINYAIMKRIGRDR
Kind of series: X-ray crystallography; FP: 10 mM TAPS pH 8.2, 2 mM PIPES, 50 or 150 mM NaCl, 0.5 mM MgAc, 0.1 mM TCEP, 0.01% Brij-35, room temperature, 0.1 nM RNA; EMSA: 20 mM HEPES pH 7.5, 100 mM NaCl (plus 30 mM from protein buffer), 1 mM MgAc, 0.1 mM TCEP, 5% glycerol, 50 nM RNA, 15 min; SwitchSENSE: 40 mM NaCl. Conditions: protein: recombinant; tags: N-terminal His6, 3C-cleaved.

Series [6] addresses T1, Mmi1 USR-YTH. Kind of series: NMR; FP: 10 mM TAPS pH 8.2, 2 mM PIPES, 50 or 150 mM NaCl, 0.5 mM MgAc, 0.1 mM TCEP, 0.01% Brij-35, room temperature, 0.1 nM RNA; EMSA: 20 mM HEPES pH 7.5, 100 mM NaCl (plus 30 mM from protein buffer), 1 mM MgAc, 0.1 mM TCEP, 5% glycerol, 50 nM RNA, 15 min; SwitchSENSE: 40 mM NaCl. Conditions: protein: recombinant; tags: N-terminal His6, 3C-cleaved.

Series [7] deals with T1, Mmi1 USR-YTH. Kind of series: EMSA; FP: 10 mM TAPS pH 8.2, 2 mM PIPES, 50 or 150 mM NaCl, 0.5 mM MgAc, 0.1 mM TCEP, 0.01% Brij-35, room temperature, 0.1 nM RNA; EMSA: 20 mM HEPES pH 7.5, 100 mM NaCl (plus 30 mM from protein buffer), 1 mM MgAc, 0.1 mM TCEP, 5% glycerol, 50 nM RNA, 15 min; SwitchSENSE: 40 mM NaCl. Conditions: protein: recombinant; tags: N-terminal His6, 3C-cleaved; label: 3'-fluorescein.

Series [8] has as its target T1, Mmi1 USR-YTH. Kind of series: fluorescence polarization; 50 mM NaCl; FP: 10 mM TAPS pH 8.2, 2 mM PIPES, 50 or 150 mM NaCl, 0.5 mM MgAc, 0.1 mM TCEP, 0.01% Brij-35, room temperature, 0.1 nM RNA; EMSA: 20 mM HEPES pH 7.5, 100 mM NaCl (plus 30 mM from protein buffer), 1 mM MgAc, 0.1 mM TCEP, 5% glycerol, 50 nM RNA, 15 min; SwitchSENSE: 40 mM NaCl. The following applies: protein: recombinant; tags: N-terminal His6, 3C-cleaved; label: 3'-6-carboxyfluorescein. A general note: Fluorescence polarisation rises when a labelled molecule tumbles more slowly, as on binding a larger partner.

For series [9], the target named is T2, Mmi1 YTH. The series is described as above. The following applies: protein: recombinant; tags: N-terminal His6, 3C-cleaved; label: 3'-6-carboxyfluorescein.
Series [10] has as its target T1, Mmi1 USR-YTH. Kind of series: fluorescence polarization; 150 mM NaCl; FP: 10 mM TAPS pH 8.2, 2 mM PIPES, 50 or 150 mM NaCl, 0.5 mM MgAc, 0.1 mM TCEP, 0.01% Brij-35, room temperature, 0.1 nM RNA; EMSA: 20 mM HEPES pH 7.5, 100 mM NaCl (plus 30 mM from protein buffer), 1 mM MgAc, 0.1 mM TCEP, 5% glycerol, 50 nM RNA, 15 min; SwitchSENSE: 40 mM NaCl. Conditions: protein: recombinant; tags: N-terminal His6, 3C-cleaved; label: 3'-6-carboxyfluorescein.

The target in series [11] is T2, Mmi1 YTH. The description is as above. The following applies: protein: recombinant; tags: N-terminal His6, 3C-cleaved; label: 3'-6-carboxyfluorescein.

Take DSRshort-DNA chimera for SwitchSENSE: the Kd with Mmi1 USR-YTH [1] was 0.09 nM; in series [2], 15000 nM; in series [3], 160 nM; in series [4] it was 51000 nM; with Mmi1 YTH [5] it was 16 nM.

Regarding UUAAACC (ssRNA) [7-mer DSR RNA], the binding result in the series with Mmi1(301-488) and in the series with Mmi1 USR-YTH [6] was “binds” in each case.

In the case of GUGUCUCUUUAAACCUAAAAAGCAC (ssRNA) [rec8DSR], in the series with Mmi1 USR-YTH [7], the binding result is “binds”.

As for UCUUAAACCAGUCAC (ssRNA) [DSRshort (15-mer)], the Kd came to 0.14 ± 0.01 nM in the series with Mmi1 USR-YTH [8], 42 ± 18 nM in the series with Mmi1 YTH [9], 6.1 ± 0.7 nM with Mmi1 USR-YTH [10] and 154 ± 85 nM with Mmi1 YTH [11].

On to CUUUAAACCUA (ssRNA) [11-mer DSR RNA], for which the binding result with Mmi1(301-488) is listed as “binds”.
